# Reference: patent publication US20230312723A1, “METHODS AND COMPOSITIONS FOR NON-SMALL CELL LUNG CANCER IMMUNOTHERAPY” (Genentech, Inc., priority 2020, published 2023)
# How the values were obtained:
# [1] = tested on: patients with Stage IV NSCLC; assay: Phase III study: safety, adverse events graded according to NCI CTCAE v4.0
# [2] = tested on: Stage IV non-squamous or squamous NSCLC; assay: Phase III randomized open-label study of atezolizumab vs platinum-based chemotherapy: efficacy (OS, PFS, ORR, DOR per RECIST v1.1), incl. PD-L1 and bTMB subgroups; assay type: in vivo, human
# Procedure: As described below, the primary endpoint of this study was improvement in overall survival (OS). Secondary endpoints included progression-free survival (PFS), overall response rate (ORR), and duration of response (DOR), among others.
# FIG. 1 illustrates the study design.
# At screening, tumor specimens from each potentially eligible patient were tested for PD-L1 expression by a central laboratory using an IHC assay. Only patients who are PD-L1 selected (TC1/2/3 or 101/2/3; corresponding to 1% PD-L1 expressing TCs and 1% of tumor area occupied by PD-L1 expressing ICs) were enrolled. […] Randomization was stratified by sex (male vs. female), ECOG Performance Status (0 vs. 1), histology (non-squamous vs. squamous), and PD-L1 tumor expression by IHC (TC1/2/3 and any IC vs. TC0 and 101/2/3).
# Patients randomized to receive pemetrexed in combination with either cisplatin or carboplatin (non-squamous disease) received chemotherapy intravenously on Day 1 of each 21-day cycle for four or six cycles, followed by maintenance therapy with pemetrexed. Patients randomized to receive gemcitabine in combination with either cisplatin or carboplatin (squamous disease) received cisplatin or carboplatin intravenously on Day 1 and gemcitabine intravenously on Days 1 and 8 of each 21-day cycle for four or six cycles, followed by best supportive care. The intended number of cycles planned for the platinum-based induction chemotherapy (i.e., four or six cycles) was specified by the investigator prior to study randomization. Treatment will continue until disease progression, unacceptable toxicity, or death.
# All patients underwent tumor assessment at baseline and every 6 weeks (±7 days) for 48 weeks following Cycle 1, Day 1 regardless of treatment delays. […] In the absence of radiographic disease progression per RECIST v1.1, tumor assessments continued regardless of whether patients start a new anti-cancer therapy.
# The primary efficacy outcome measure for this study is OS, defined as the time from randomization to death from any cause.
# The secondary efficacy outcome measures for this study are as follows: • PFS, defined as the time from randomization to the first occurrence of disease progression, as determined by the investigator with use of RECIST v1.1, or death from any cause, whichever occurs first • Objective response (PR plus CR) as determined by the investigator according to RECIST v1.1 • DOR, defined as the time from the first occurrence of a documented objective response to the time of disease progression, as determined by the investigator with use of RECIST v1.1, or death from any cause, whichever occurs first • OS at 1- and 2-year landmark timepoints • TTD and change from baseline (i.e., improvement or deterioration based on presenting symptomatology) in each of the patient-reported lung cancer symptoms (cough, dyspnea, or chest pain) with use of the SILO scale • TTD in patient-reported lung cancer symptoms, defined as time from randomization to deterioration (10-point change) in any of the following symptom subscales (cough, dyspnea [multi-item scale], and chest pain), whichever occurs first, as measured by the EORTC QLQ-LC13 • OS and investigator-assessed PFS according to RECIST v1.1 in the PD-L1 (defined with SP263 IHC assay) and bTMB subpopulations. The bTMB assay (Foundation Medicine, Cambridge, MA) identifies single nucleotide variants at ≥0.5% across 394 genes and estimates tumor fraction by maximum somatic allele frequency, filters out germline events and counts non-driver somatic mutations to generate a bTMB score. The bTMB score cutoffs evaluated were 0, 6 and […] of 16 (16 mutations/1.1 Mb) equates to approximately 14.5 mutations/Mb.
# [3] = All treated patients, Chemo N = 263, Atezo N = 286
# [4] = All treated patients, Chemo N = 263, Atezo N = 286, listed as atezolizumab
# [5] = TC1/2/3 or IC1/2/3-WT population
# [6] = bTMB 6 cutoff, bTMB BEP-WT population
substance,measurement,setting,value
atezolizumab,"Related AE (TRAE), % of patients",[1]; [3],(60.5%)
same,"Related AE, number of patients",[1]; [3],173
same,"Serious Adverse Event, % of patients",[1]; [3],(28.3%)
same,"Serious Adverse Event, number of patients",[1]; [3],81
same,"Treatment-Related SAE, % of patients",[1]; [3],(8.4%)
same,"Treatment-Related SAE, number of patients",[1]; [3],24
same,"Treatment-related Grade 3-4 AE, % of patients",[1]; [3],(12.9%)
same,"Treatment-related Grade 3-4 AE, number of patients",[1]; [3],37
same,"Treatment-related Grade 5 AE, number of patients",[1]; [3],0
same,"Related AE (TRAE), % of patients",[1]; [4],60.5%
same,"Treatment-related Grade 3-4 AE, % of patients",[1]; [4],12.9%
same,"Treatment-related AE Anemia, All Grades, %","[1]; Atezo n = 286, Chemo n = 263",(3.5) %
same,"Treatment-related AE Asthenia, All Grades, %","[1]; Atezo n = 286, Chemo n = 263",(7.3) %
same,"Treatment-related AE Asthenia, Grade 3-4, %","[1]; Atezo n = 286, Chemo n = 263",0.3%
same,"Treatment-related AE Constipation, All Grades, %","[1]; Atezo n = 286, Chemo n = 263",(3.5) %
same,"Treatment-related AE Constipation, Grade 3-4, %","[1]; Atezo n = 286, Chemo n = 263",0.3%
same,"Treatment-related AE Decreased appetite, All Grades, %","[1]; Atezo n = 286, Chemo n = 263",(7.0) %
same,"Treatment-related AE Decreased appetite, Grade 3-4, %","[1]; Atezo n = 286, Chemo n = 263",0.7%
same,"Treatment-related AE Decreased white blood cell count, All Grades, %","[1]; Atezo n = 286, Chemo n = 263",(1.0) %
same,"Treatment-related AE Fatigue, All Grades, %","[1]; Atezo n = 286, Chemo n = 263",(7.7) %
same,"Treatment-related AE Fatigue, Grade 3-4, %","[1]; Atezo n = 286, Chemo n = 263",0.7%
same,"Treatment-related AE Hyperkalemia, All Grades, %","[1]; Atezo n = 286, Chemo n = 263",(2.1) %
same,"Treatment-related AE Hyperkalemia, Grade 3-4, %","[1]; Atezo n = 286, Chemo n = 263",1.0%
same,"Treatment-related AE Hyponatremia, All Grades, %","[1]; Atezo n = 286, Chemo n = 263",(1.7) %
same,"Treatment-related AE Hyponatremia, Grade 3-4, %","[1]; Atezo n = 286, Chemo n = 263",1.0%
same,"Treatment-related AE Leukopenia, All Grades, %","[1]; Atezo n = 286, Chemo n = 263",(1.0) %
same,"Treatment-related AE Leukopenia, Grade 3-4, %","[1]; Atezo n = 286, Chemo n = 263",0.3%
same,"Treatment-related AE Nausea, All Grades, %","[1]; Atezo n = 286, Chemo n = 263",(7.0) %
same,"Treatment-related AE Nausea, Grade 3-4, %","[1]; Atezo n = 286, Chemo n = 263",0.3%
same,"Treatment-related AE Neutropenia, All Grades, %","[1]; Atezo n = 286, Chemo n = 263",(1.0) %
same,"Treatment-related AE Neutropenia, Grade 3-4, %","[1]; Atezo n = 286, Chemo n = 263",0.7%
same,"Treatment-related AE Pancytopenia, All Grades, %","[1]; Atezo n = 286, Chemo n = 263",(0.3) %
same,"Treatment-related AE Pancytopenia, Grade 3-4, %","[1]; Atezo n = 286, Chemo n = 263",0.3%
same,"Treatment-related AE Thrombocytopenia, All Grades, %","[1]; Atezo n = 286, Chemo n = 263",(1.7) %
same,"Treatment-related AE Thrombocytopenia, Grade 3-4, %","[1]; Atezo n = 286, Chemo n = 263",0.3%
same,"Treatment-related AE Vomiting, All Grades, %","[1]; Atezo n = 286, Chemo n = 263",(1.4) %
same,"Treatment-related AE Vomiting, Grade 3-4, %","[1]; Atezo n = 286, Chemo n = 263",0.3%
same,"Grade 5 AE: Acute myocardial infarction, %","[1]; Chemo N = 263, Atezo N = 286",0.3%
same,"Grade 5 AE: Aspiration, %","[1]; Chemo N = 263, Atezo N = 286",0.3%
same,"Grade 5 AE: COPD, %","[1]; Chemo N = 263, Atezo N = 286",0.3%
same,"Grade 5 AE: Cardiac arrest, %","[1]; Chemo N = 263, Atezo N = 286",0.3%
same,"Grade 5 AE: Cardiac disorders, %","[1]; Chemo N = 263, Atezo N = 286",0.7%
same,"Grade 5 AE: Cerebral infarction, %","[1]; Chemo N = 263, Atezo N = 286",0.3%
same,"Grade 5 AE: Death, %","[1]; Chemo N = 263, Atezo N = 286",0.7%
same,"Grade 5 AE: Gastrointestinal disorders, %","[1]; Chemo N = 263, Atezo N = 286",0.3%
same,"Grade 5 AE: General disorders and administration site conditions, %","[1]; Chemo N = 263, Atezo N = 286",0.7%
same,"Grade 5 AE: Infections and infestations, %","[1]; Chemo N = 263, Atezo N = 286",0.3%
same,"Grade 5 AE: Mechanical ileus, %","[1]; Chemo N = 263, Atezo N = 286",0.3%
same,"Grade 5 AE: Nervous system disorders, %","[1]; Chemo N = 263, Atezo N = 286",0.3%
same,"Grade 5 AE: Product issues, Device occlusion, %","[1]; Chemo N = 263, Atezo N = 286",0.3%
same,"Grade 5 AE: Pulmonary embolism, %","[1]; Chemo N = 263, Atezo N = 286",0.3%
same,"Grade 5 AE: Respiratory, thoracic and mediastinal disorders, %","[1]; Chemo N = 263, Atezo N = 286",1.0%
same,"Grade 5 AE: Sepsis, %","[1]; Chemo N = 263, Atezo N = 286",0.3%
same,Grade 5 AE: Total number of patients,"[1]; Chemo N = 263, Atezo N = 286",11
same,"Grade 5 AE: Total, % of patients","[1]; Chemo N = 263, Atezo N = 286",3.8%
same,Safety profile compared to platinum-based chemotherapy (in words),"[1]; safety population: 286 patients Arm A, 263 Arm B",favorable safety profile
same,OS vs chemotherapy (in words),[2]; PD-L1-positive BEP subgroups,OS improvement favoring atezolizumab vs chemotherapy
same,Median OS,[2]; [5],17.5 months
same,"OS HR, stratified (atezo vs chemo)",[2]; [5],0.832
same,Median OS,[2]; TC2/3 or IC2/3-WT population,18.2 months
same,"OS HR, stratified (atezo vs chemo)",[2]; TC2/3 or IC2/3-WT population,0.717
same,Confirmed ORR,[2]; TC3 or IC3-WT population,"38.3% (29.08,"
same,"Overall Survival, Median",[2]; TC3 or IC3-WT population,20.2 months
same,"Overall Survival, Stratified HR (atezo vs chemo)",[2]; TC3 or IC3-WT population,0.595
same,"Overall Survival, improvement of median vs chemo",[2]; TC3 or IC3-WT population,7.1 months
same,"Progression-Free Survival, Median",[2]; TC3 or IC3-WT population,8.1 months
same,"Progression-Free Survival, Stratified HR (atezo vs chemo)",[2]; TC3 or IC3-WT population,0.630
same,"Progression-Free Survival, improvement of median vs chemo",[2]; TC3 or IC3-WT population,3.1 months
same,PFS vs chemotherapy (in words),[2]; across PD-L1 BEP subgroups,PFS improvement with atezolizumab was observed
same,OS unstratified HR (atezolizumab vs chemotherapy),[2]; [6],0.75
same,PFS HR (atezolizumab vs chemotherapy),[2]; [6],0.55
